# Data taken from patent publication US20250152627A1, “COMPOSITIONS AND METHODS FOR ENHANCING IMMUNE CELL FUNCTION USING MODIFIED CELLS WITH GLYCOCALYX EDITING ENZYMES” (Cornell University, priority 2021, published 2025).
# B1: StcE-ΔX409: StcE with a deleted C-terminal X409 lectin domain; NK cells treated with it: StcE-ΔX409 NK (protein)
# chain: ADNNSAIYFNTSQPINDLQGSLAAEVKFAQSQILPAHPKEGDSQPHLTSLRKSLLLVRPVKADDKTPVQVEARDDNNKILGTLTLYPPSSLPDTIYHLDGVPEGGIDFTPHNGTKKIINTVAEVNKLSDASGSSIHSHLTNNALVEIHTANGRWVRDIYLPQGPDLEGKMVRFVSSAGYSSTVFYGDRKVTLSVGNTLLFKYVNGQWFRSGELENNRITYAQHIWSAELPAHWIVPGLNLVIKQGNLSGRLNDIKIGAPGELLLHTIDIGMLTTPRDRFDFAKDKEAHREYFQTIPVSRMIVNNYAPLHLKEVMLPTGELLTDMDPGNGGWHSGTMRQRIGKELVSHGIDNANYGLNSTAGLGENSHPYVVAQLAAHNSRGNYANGIQVHGGSGGGGIVTLDSTLGNEFSHEVGHNYGLGHYVDGFKGSVHRSAENNNSTWGWDGDKKRFIPNFYPSQTNEKSCLNNQCQEPFDGHKFGFDAMAGGSPFSAANRFTMYTPNSSAIIQRFFENKAVFDSRSSTGFSKWNADTQEMEPYEHTIDRAEQITASVNELSESKMAELMAEYAVVKVHMWNGNWTRNIYIPTASADNRGSILTINHEAGYNSYLFINGDEKVVSQGYKKSFVSDGQFWKERDVVDTREARKPEQFGVPVTTLVGYYDPEGTLSSYIYPAMYGAYGFTYSDDSQNLSDNDCQLQVDTKEGQLRFRLANHRANNTVMNKFHINVPTESQPTQATLVCNNKILDTKSLTPAPEGLTYTVN
# What was measured:
# NK-92 cell surface = assay: Flow cytometry of StcE surface level on NK-92 cells (anti His-tag); type: cell-based; details: after washing with buffer; no additional molecular tether
# Experimental: Cells were plated, grown for 24 hours, and then induced with various concentrations of doxycycline for 24 hours. Adherent cells were detached by incubating with Accutase (Innovative Cell Technologies) at 37° C. for 10 minutes. GFP nanobody conjugated Alexa Fluor 647, Neutravidin conjugated DyLight 650, CF640R PNA, Alexa Fluor 647 HPA, and biotin MAL-II were diluted 1:200 in 0.5% BSA PBS and incubated with cells at 4° C. for 30 minutes for each stain. For analysis of Muc1 cell surface expression level, anti-Human Muc Clone HMPV was diluted 1:200 in 0.5% BSA PBS and incubated with cells at 4° C. (for 1 hour. Secondary labelling was with Alexa Fluor 647 conjugated goat anti-mouse, diluted 1:1000 in 0.5% BSA PBS and incubated with cells at 4° C. for 1 hour. For analysis of StcE mucinase binding to NK-92 cells, NK cells were incubated with StcE at 37° C. for 1 hour. Cells were thoroughly washed to remove StcE and coculture with target cells. Anti-6× His-tag antibody was diluted 1:100 in 0.5% BSA PBS and incubated with cells at 4° C. for 1 hour. Secondary labelling was with Alexa Fluor 647 goat anti-rabbit IgG, diluted 1:500 in 0.5% BSA PBS or FluoTag-X2 anti-AFLA conjugated with Alexa Fluor 647 was diluted 1:200 in 0.5% BSA PBS and incubated with cells at 4° C. for 1 hour. […]
# [1] = system: Muc1-GFP expressing 1E7 cells; assay: Removal of cell-surface mucin from 1E7 cells (confocal imaging, GFP nanobody); type: cell-based; details: 100 nM enzyme
# Experimental: FIG. 11. StcE mucinase effectively remove cell-surface mucin on 1E7 clone and NK cell. (A) Representative confocal images of Muc1-GFP expressing 1E7 cells with and without treatment with 100 nM StcE, StcE ΔX409, or StcE-EE Zip; Alexa Fluor 647 conjugated to GFP nanobody is used to probe cell-surface Muc1-GFP constructs. (Scale bar, 10 μm). (B) Quantification of mean fluorescence intensity of Muc1-GFP and cell-surface Muc1-GFP probed with GFP nanobody in 1E7 cells treated with the indicated concentration of StcE mucinase; results are shown for induction of Muc1-GFP at 100 ng/ml and 1000 ng/ml doxycycline. (C) Cytotoxicity of NK-92 cells against 1E7 cells treated with control buffer, 100 nM StcE mucinase, or 5,000 U/mL PNGase F for 1 hour; Muc1-GFP induction is at the indicated doxycycline concentration (1,100, and 1,000 ng/ml); NK cell to target cell ratio is 5:1. (D) Flow cytometry analysis of mucin levels on NK-92 cells following incubation with control buffer or 100 nM recombinant StcE or StcE ΔX409; StcE surface level after incubation probed with anti His-tag antibody and cell-surface mucin level probed with catalytically dead StcE E447D conjugated to Cy5. Statistical significance is given by ns—not significant, *P≤0.05, **P≤0.01, ***P≤0.001, ****P≤0.0001. Results are a representative dataset from 3 independent replicates. […]
molecule,measurement,setting,value
B1,binding and retention on the NK-92 cell surface,NK-92 cell surface,not retained
same,removal / cleavage of cell-surface mucin,[1],could actively digest Muc
